# B1: OR4K15 (parent)
# chain: GUUAACGGUCAUAGGCCAUGGAAACUAGGAGCACCAUUUCGCUGCCAGUGAAGAAAUGAACAAAGAAAAUCUGGGCCAGGCAGGCAUCAAAAGAAAUAGUCUUGCGCUCAACCAGAAAGUCUGUAAUCAUUUUAAGGGUA
# Variants of: B1
# Experiment: self-cleavage, relative activity (ratio to wild type); higher = more cleavage; in vitro, sequencing; the parent is a self-cleaving ribozyme
row,Variant,self-cleavage
1,G75A C81U,0.21
2,G74U U97C,0.22
3,A68U U127C,0.82
4,A69C A126G,0.51
5,A69G A95G,1.8
6,G75C A111G,0
7,A69G A98G,0.49
8,A69G A98U,1.35
9,C71U A129G,0.08
10,C71U A114G,0.05
11,C71U A114U,0.06
12,U72C A125G,0.07
13,G74A C81A,0.19
14,C76U A94G,0.13
15,G73A A111G,0.02
16,U72G U132A,0.44
17,A69U A78G,0.32
18,U72A C105U,0.04
19,C71A A117G,0.35
20,C76A A94G,0.06
21,A69U A82G,0.63
22,A69U A82U,0.04
23,U70C G119A,1.49
24,U70C A118U,0.18

row,Variant,self-cleavage
1,G74A A94G,0.13
2,U72G A86G,0.1
3,U70A U120C,0.41
4,U72C C76U,0.22
5,G74A A78G,0.21
6,U72C G79A,0.32
7,A69U A110G,0.09
8,U70A A116U,0.79
9,A69G A129U,0.33
10,G75A U97C,0.15
11,C76G A82U,0.22
12,A69G U72A,0.19
13,A69G U72C,0.3
14,A69U U97A,2.51
15,U72C U131G,0.28
16,U72C A116G,0.07
17,U72C U87A,0.4
18,U72C U87C,0.22
19,A69G G104C,0.01
20,U70A U130C,0.61
21,U70C U103C,0.56
22,U72A A110U,0.29
23,U72A A110G,0.06
24,U70A A135G,0.74

row,Variant,self-cleavage
1,U72A A89G,0.36
2,U72C C81A,0.26
3,U72C U124G,0.07
4,U70A C121U,2.35
5,U72A A94G,0.02
6,U72A U139C,0.23
7,U72A U139A,0.24
8,U70A U127A,2.27
9,U72C A135U,0.28
10,U72G U120A,0.19
11,A69G A90U,1.9
12,U70C U122C,0.09
13,A69G U108A,0.02
14,U70C A86G,0.86
15,U72A A98G,0.04
16,A69C U120C,0.7
17,G75A U100C,0.12
18,U70C A129G,0.33
19,G74A G115U,0.03
20,A69G C81A,0.15
21,U70C A90G,0.83
22,A69G U124C,1.11
23,G75U A90U,0.12
24,G74A A82U,0.32

row,Variant,self-cleavage
1,U70A A111G,0.04
2,U70C A82G,0.31
3,G75A A134G,0.09
4,A69G U130C,0.5
5,A69G U130G,1.3
6,A69U A94U,2.23
7,A69U U120A,1.84
8,G73A A86G,0.05
9,G75A A90G,0.13
10,U72C A90G,0.54
11,A69G A140G,1.93
12,U70C U120C,0.25
13,U70C U120A,0.8
14,U72A U132A,0.25
15,U72A U132C,0.23
16,U70A A125G,0.44
17,A69G A111G,0.03
18,U70G U97C,1.01
19,A69G C109A,0.37
20,C71A A95G,0.88
21,U72A A96G,0.2
22,C71A U97C,0.18
23,A69U A125G,0.75
24,G73A A117U,0.17

row,Variant,self-cleavage
1,U70C U130C,0.21
2,U70A A91G,1.22
3,A69G A125G,0.39
4,U72C U122C,0.03
5,A69G A89U,1.53
6,U72C A82G,0.3
7,U72C A82U,0.08
8,G74A U108A,0.03
9,G74U G104A,0.02
10,U72C C109U,0.06
11,U72C C109A,0.07
12,U72C A117U,0.15
13,U70C G106A,0.01
14,G74A U120C,0.1
15,G75C A116G,0.05
16,U72A U133C,0.29
17,U72C U103A,0.08
18,U72C U103G,0.01
19,U72C U103C,0.09
20,U70C U139C,0.7
21,U70C U139A,1.3
22,G74A U87C,0.19
23,A69C A90G,0.37
24,A69G U139C,1.24

row,Variant,self-cleavage
1,U72C C112U,0.02
2,A69G U103C,0.73
3,G73A C88U,0.17
4,U72A A92G,0.26
5,U72A A125G,0.05
6,U72G A92G,0.42
7,U72A A82C,0.35
8,U70C A92G,0.82
9,U72A A78G,0.05
10,C71U C105U,0.07
11,C71U U102C,0.66
12,G73A U131C,0.08
13,A69U U130C,0.9
14,A69G A78U,0.33
15,C76G C121U,0.08
16,U72G A90G,0.39
17,U70C A94G,0.77
18,U72C A78U,0.15
19,U72A U124C,0.04
20,U70A U102A,0.25
21,G75A U108A,0.01
22,U72A U103C,0.14
23,G73A A89C,0.14
24,U70C U132C,0.96

row,Variant,self-cleavage
1,U70C U132A,0.38
2,U72C G93A,0.32
3,U72G A111U,0.04
4,U72C G104A,0.01
5,U70C A89C,0.49
6,U70C A89G,0.58
7,U70C A89U,1.17
8,U72G A118G,0.22
9,U72A U130C,0.13
10,A69G U102C,2.06
11,A69G U102A,0.58
12,U70C A110U,0.92
13,A69G G79U,0.1
14,U72G A135C,0.33
15,U72A C101U,0.04
16,G74U U120C,0.08
17,C76U A86U,0.08
18,U70C A135G,1.14
19,U70G A82U,0.2
20,A69G U127C,0.82
21,A69G C112U,0.01
22,A69G A118U,0.56
23,A69U A114G,2.05
24,U72A A114U,1.94

row,Variant,self-cleavage
1,U72A A114C,0.06
2,A69G C121A,2.02
3,C76G U122C,0.15
4,G74A U102C,0.05
5,U70C A134G,0.72
6,G74A U100C,0.45
7,A69C G84U,0.82
8,U72A U122C,0.12
9,C71A U120C,0.24
10,U70C A125U,1.06
11,U70C A125G,0.19
12,G75A A116G,0.06
13,A69C A96C,1.03
14,U70C C101U,0.12
15,U70C C101G,0.11
16,G74C A89G,0.07
17,C71A A86G,0.28
18,A69G G73U,0.33
19,U70C U127A,0.95
20,U70C A78G,0.26
21,U70C C88U,1.54
22,A69U U132C,1.11
23,U70C A140U,0.96
24,U70C A140G,0.38

row,Variant,self-cleavage
1,G74U A94G,0.41
2,A69U A140U,2.31
3,U70A A92G,0.4
4,G75C A140G,0.15
5,G74U,0.05
6,G74A,0.12
7,G74C,0.19
8,U70A C105U,0.16
9,G74A A116G,0.12
10,U72A A118G,0.12
11,U72C U130C,0.16
12,U72C A96G,0.05
13,U72C A91C,0.27
14,C76U A82G,0.09
15,A69G A96U,1.85
16,U72G A114U,0.6
17,G74A C128U,0.13
18,G73A U122C,0.04
19,U70G U127C,0.57
20,G74A U139C,0.19
21,A69G U70C,0.25
22,U72C G136C,0.31
23,U70C A91G,0.6
24,G74U A82G,0.28

row,Variant,self-cleavage
1,G74A U130C,0.11
2,G73A A118U,0.04
3,A69G C105G,0.02
4,U72C A89U,0.45
5,G73A A129G,0.07
6,G73A A78G,0.21
7,A69U U131C,1.33
8,A69G U97C,0.98
9,G75A A92G,0.08
10,A69G U132C,1.56
11,U72G G74A,0.18
12,G73U A116G,0.11
13,U72A A116G,0.04
14,C76A A110G,0.05
15,U72C U97C,0.1
16,A69U U87A,1.79
17,A69G U131G,0.46
18,U70G U102C,0.64
19,A69U A91G,1.79
20,U70C A117G,1.21
21,U70C G74U,0.17
22,G73C,0.23
23,G73U,0.05
24,G73A,0.07

row,Variant,self-cleavage
1,U70C U131A,0.45
2,A69G A114G,0.17
3,C76A G104A,0.03
4,U72C U102C,0.36
5,A69G A117U,0.97
6,A69G A117G,1.44
7,A69U U122A,2.21
8,A69U U103A,1.87
9,G74U C113U,0.02
10,A69U U127C,1.46
11,U70A A89G,1.13
12,G74U A117G,0.02
13,U70A U103C,0.68
14,U70C C107U,0.02
15,U70C A116G,1.52
16,U70C A116U,0.34
17,U72G A94G,0.09
18,A69G A110U,0.98
19,A69G A110G,0.14
20,U72G U103C,0.07
21,U70C A111U,0.07
22,G75U A135G,0.16
23,C76A A111G,0.02
24,G73A U127C,0.11

row,Variant,self-cleavage
1,U72C U127C,0.07
2,U70C A114G,0.12
3,U72A A134U,0.27
4,G74U A114G,0.03
5,G75A A117G,0.07
6,U72C A140C,0.44
7,U70C G123A,1.18
8,G74U U132A,0.3
9,G74U U132C,0.18
10,G75C U103A,0.01
11,U70C C121U,1.42
12,U72C A92G,0.21
13,U72C U100C,0.34
14,A68U U132G,0.9
15,G73U A86C,0.19
16,G73U U122C,0.1
17,U72C C105U,0.03
18,U70C U87A,0.61
19,U70C U87C,0.09
20,U70A U108C,0.01
21,U72C G84U,0.35
22,U72C A110G,0.06
23,U72C A86U,0.14
24,U72C A86G,0.14

row,Variant,self-cleavage
1,U70C U102C,1.57
2,G74A U131C,0.19
3,A69C,1.05
4,A69U,1.81
5,A69G,1.16
6,U70C A98G,0.41
7,G75A C109U,0.09
8,A69U A86G,2.37
9,C71A A82G,0.26
10,U72G U87C,0.31
11,A69G C71A,0.43
12,U72A U127G,0.23
13,A69G U122C,0.43
14,U72C A126U,0.4
15,U72C A126G,0.12
16,G75U U87C,0.11
17,C71U A91G,0.41
18,U70A U139C,1.06
19,U70G U103C,1.08
20,U72C U120C,0.15
21,U72C U120A,0.13
22,A69U U100C,2.44
23,U70C A96G,0.75
24,G74C U139C,0.15

row,Variant,self-cleavage
1,C71A,0.61
2,C71G,0.24
3,C71U,0.17
4,A69U A126U,0.72
5,A69G U100G,1.94
6,C71U U131C,0.25
7,C71A U103C,0.11
8,U72A U120A,0.17
9,C71U A89G,0.52
10,U70C C113G,0.02
11,U70C C113U,0.02
12,U72C A94C,0.1
13,U72C A94G,0.07
14,U72A A129U,0.23
15,U72A A129G,0.08
16,U72C U139A,0.24
17,U72C U139C,0.46
18,U72A A111G,0.02
19,G75U U102C,0.12
20,C71U U87A,0.61
21,G75A A114G,0.04
22,G75A A114U,0.02

# From the RNAGym collection of RNA variant scans (doi:10.7554/elife.90254)
